Laboratory results as given in publication PMC5102385, “Structure of a Spumaretrovirus Gag Central Domain Reveals an Ancient Retroviral Capsid” (PLoS Pathogens, 2016).

How the values were obtained:
[1] = target: the molecule itself; assay: AUC; multi-speed sedimentation equilibrium at varying protein concentration, 20 mM Tris-HCl pH 8, 150 mM NaCl, 0.5 mM TCEP, interference data, global fit with SEDPHAT; monomer to dimer
[2] = target: the molecule itself; assay: as above; remark: listed apart in the source

B1: PFV-Gag CtDCEN (domain or fragment)
chain: RTHGTFPMHQLGNVIKGIVDQEGVATAYTLGMMLSGQNYQLVSGIIRGYLPGQAVVTALQQRLDQEIDNQTRAETFIQHLNAVYEILGLNARGQSIR
notes: Gag of Prototype foamy virus (PFV), residues 381-477 (CtDCEN), amplified from plasmid pcziGag4, in pET22b (NdeI/XhoI); also called PFV-CtDCEN; source: E. coli Rosetta 2 (DE3), purified (Ni-NTA, SEC on Superdex 75)
In the case of B1, the Kd [1] is reported as 900 nM, the Ka [2] is reported as 1.1e+06 M⁻¹ and the “stoichiometry N” value [2] is reported as 2.
